Measurements from article PMC5554461.

Target: soluble 2-domain CD4 (2dCD4)
Assay: BLI

Substance: YU2(R456K).SOSIP.664 (from UniProt P35961 499-843) (complex)
- fold reduction of the on-rate against YU2.SOSIP.664: 2 fold
